Laboratory results from patent US20140234868A1, “USE FOR GLYCOLIPOPROTEIN GINTONIN, ISOLATED AND IDENTIFIED FROM GINSENG, AS A NATURAL MEDICAL-PLANT DERIVED LIGAND” (KONKUK UNIVERSITY INDUSTRIAL COOPERATION CORP., priority 2011, published 2014).

Biological target: T1, mutant W4.64A LPA3 receptor (Homo sapiens, UniProt Q9UBY5, W167A)
T1 construct: expressed in transfected cells; host or cells: B103 rat neuroblastoma cells
T1 sequence (Q9UBY5 1-353 W167A): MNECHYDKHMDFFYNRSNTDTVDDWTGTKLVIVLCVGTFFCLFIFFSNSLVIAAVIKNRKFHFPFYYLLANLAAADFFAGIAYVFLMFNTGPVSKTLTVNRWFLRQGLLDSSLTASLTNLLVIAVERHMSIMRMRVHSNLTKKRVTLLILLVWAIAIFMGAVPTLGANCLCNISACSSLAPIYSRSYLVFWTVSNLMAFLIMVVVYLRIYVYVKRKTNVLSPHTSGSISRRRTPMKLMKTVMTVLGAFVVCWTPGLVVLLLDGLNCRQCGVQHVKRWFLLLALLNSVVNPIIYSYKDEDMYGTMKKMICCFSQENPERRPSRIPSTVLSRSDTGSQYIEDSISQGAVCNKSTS
Test: Intracellular Ca2+ in B103 cells with mutant W4.64A LPA3 receptor
Type: cell-based
Conditions: W4.64A LPA3 receptor-transfected B103 cells
Text: That is, LPA receptors have specific amino acid residues, known as binding sites, which are responsible for interaction with LPA, and the binding of LPA to the specific amino acids starts to exert the function. This Example was configured to examine a change in the gintonin-induced intracellular calcium increase through LPA receptor activation in LPA3 receptor-expressing cells when specific amino acids of the LPA binding site in LPA receptors were mutated.
To this end, a mutant LPA receptor in which Arg3.28, known as a common LPA binding site of LPA1-LPA3 receptors, was mutated as Arg3.28Ala (that is, Arg is substituted by Ala; R3.28A) or Trp4.64, known as an LPA-binding site of LPA3 receptor was mutated as Trp4.64Ala (that is, Tip is substituted by Ala; W4.64A) (Valentine et al., J. Biol. Chem. 283, 12175-12187, 2008) was transfected to B103 cells which were then tested for the action of gintonin, in comparison with cells transfected with the wild-type. […] From the result, it is henceforth understood that the gintonin-triggered LPA receptor activation is achieved by interaction with the LPA binding sites of LPA receptors and that gintonin occupies the LPA binding sites to activate LPA receptors.

B1: gintonin: ginseng-derived glycolipoprotein; structural protein of ginseng major latex-like protein (MLP151) and ribonuclease-like storage proteins; crude gintonin used in tests (protein)
chain 1: MGLTGKLICQTGIKSDGDVFHELFGTRPHHVPNITPANIQGCDLHEGEFGKVGSVVIWNYSIDGNAMIAKEEIVAIDEEDKSVTFKVVEGHLFEEFKSIVFSVHVDTKGEDNLVTWSIDYEKLNESVKDPTSYLDFLLSVTRDIEAHHLPK
chain 2: RSDYPWAMFALRLQWPAGFCEVNNACDTKSLLNTFTIHGLYPYNAKGTPALYCDGTAFDVNSVSDFLAEMHLAWPSHETNTEDIQFWEHEWKKHGRCSEALLKQTDYFRTALAFRKAFDIVGLLNQEGIYPNNDLYRPKMIKEAIKKHLNAVPEIDFTKNENSEYVLTDINVCVNQQATRFVDCPTDDATDDYRLKFVRLPSKMKFADPRTNSII
  gintonin-induced intracellular calcium increase vs wild-type: greatly reduced
